In patent US20250019439A1 (Adimab, published 2025):

Key:
ADI-22523 Fab = target: T1, ADI-22523 Fab; assay: BLI; tip anti-ID IgG, solution ADI-22523 Fab
T1 construct: anti-CD3 Fab by papain digestion of the IgG
Method in brief: (§1)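 Anti-ID IgG was captured on AHC biosensors, equilibrated in assay buffer for 30 min, then baselined for 60 s. KD = koff/kon came from a 1:1 binding fit.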

ADI-22523 IgG = target: T2, ADI-22523 IgG; assay: BLI; tip anti-ID IgG, solution ADI-22523 IgG
T2 construct: anti-CD3 IgG
T2 sequence (VH, as listed by the source limits assumed, chain 1 of 2): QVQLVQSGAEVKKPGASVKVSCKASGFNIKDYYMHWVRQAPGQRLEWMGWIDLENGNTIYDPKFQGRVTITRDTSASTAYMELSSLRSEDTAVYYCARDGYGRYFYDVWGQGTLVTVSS
T2 sequence (VL, as listed by the source limits assumed, chain 2 of 2): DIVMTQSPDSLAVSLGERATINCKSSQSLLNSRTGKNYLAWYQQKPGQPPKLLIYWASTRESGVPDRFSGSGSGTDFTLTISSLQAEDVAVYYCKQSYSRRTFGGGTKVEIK
Method in brief: as §1

ADI-76359 = target: T3, ADI-76359; assay: SPR Carterra avidity, yeast anti-ID, *koff limit
T3 construct: anti-CD3 antibody made in CHO cells, captured by anti-human Fc
T3 sequence (VH, as listed by the source, chain 1 of 2): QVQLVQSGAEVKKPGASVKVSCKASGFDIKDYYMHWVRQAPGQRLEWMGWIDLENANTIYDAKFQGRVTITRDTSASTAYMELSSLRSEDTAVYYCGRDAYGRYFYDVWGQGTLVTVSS
T3 sequence (VL, as listed by the source, chain 2 of 2): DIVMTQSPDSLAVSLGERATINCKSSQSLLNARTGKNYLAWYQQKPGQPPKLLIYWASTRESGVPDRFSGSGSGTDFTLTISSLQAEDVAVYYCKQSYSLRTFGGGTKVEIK
Method in brief: (§2)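 Goat anti-human Fc was amine-coupled to an HC30M sensor chip, then anti-CD3 antibodies at 100 nM were flowed over discrete spots for 5 min. Anti-idiotype antibodies were run in non-regenerative kinetic cycles at 25° C in HBSTE, with 300s dissociation. Blank-subtracted sensorgrams were fitted 1:1.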

ADI-26924 = target: T4, ADI-26924; assay: SPR Carterra avidity, yeast anti-ID, *koff limit
T4 construct: anti-CD3 antibody made in CHO cells, captured by anti-human Fc
T4 sequence (VH, as listed by the source, chain 1 of 2): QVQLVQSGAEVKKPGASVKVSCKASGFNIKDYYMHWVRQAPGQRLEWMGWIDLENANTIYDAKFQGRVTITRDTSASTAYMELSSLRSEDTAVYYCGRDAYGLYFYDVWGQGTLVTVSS
Method in brief: as §2

ADI-26920 IgG = target: T5, ADI-26920 IgG; assay: SPR Carterra avidity, yeast anti-ID, *koff limit
T5 construct: anti-CD3 IgG
Method in brief: as §2

ADI-67447 = target: T6, ADI-67447; assay: SPR Carterra avidity, yeast anti-ID, *koff limit
T6 construct: anti-CD3 antibody made in CHO cells, captured by anti-human Fc
Method in brief: as §2

ADI-76361 = target: T7, ADI-76361; assay: SPR Carterra avidity, yeast anti-ID, *koff limit
T7 construct: anti-CD3 antibody made in CHO cells, captured by anti-human Fc
Method in brief: as §2

ADI-26943 = target: T8, ADI-26943; assay: SPR Carterra avidity, yeast anti-ID, *koff limit
T8 construct: anti-CD3 antibody made in CHO cells, captured by anti-human Fc
Method in brief: as §2

ADI-26909 = target: T9, ADI-26909; assay: SPR Carterra avidity, yeast anti-ID, *koff limit
T9 construct: anti-CD3 antibody made in CHO cells, captured by anti-human Fc
T9 sequence (VH, as listed by the source limits assumed, chain 1 of 2): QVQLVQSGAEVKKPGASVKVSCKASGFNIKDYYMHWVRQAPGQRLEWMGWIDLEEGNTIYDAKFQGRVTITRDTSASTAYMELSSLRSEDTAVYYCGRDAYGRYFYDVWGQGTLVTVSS
T9 sequence (VL, as listed by the source limits assumed, chain 2 of 2): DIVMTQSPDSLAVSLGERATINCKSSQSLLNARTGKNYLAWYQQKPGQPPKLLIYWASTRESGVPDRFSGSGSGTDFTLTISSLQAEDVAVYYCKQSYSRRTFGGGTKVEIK
Method in brief: as §2

ADI-67445 = target: T10, ADI-67445; assay: SPR Carterra avidity, yeast anti-ID, *koff limit
T10 construct: anti-CD3 antibody made in CHO cells, captured by anti-human Fc
Method in brief: as §2

ADI-26921 IgG = target: T11, ADI-26921 IgG; assay: SPR Carterra avidity, yeast anti-ID, *koff limit
T11 construct: anti-CD3 IgG
Method in brief: as §2

ADI-76362 = target: T12, ADI-76362; assay: SPR Carterra avidity, yeast anti-ID, *koff limit
T12 construct: anti-CD3 antibody made in CHO cells, captured by anti-human Fc
T12 sequence (VH, as listed by the source, chain 1 of 2): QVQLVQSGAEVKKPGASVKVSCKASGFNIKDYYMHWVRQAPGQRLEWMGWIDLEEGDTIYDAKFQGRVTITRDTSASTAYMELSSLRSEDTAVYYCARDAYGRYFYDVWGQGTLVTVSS
Method in brief: as §2

ADI-74965 = target: T13, ADI-74965; assay: SPR Carterra, yeast anti-ID
T13 construct: pH-dependent anti-CD3 antibody made in CHO cells
T13 sequence (VH, as listed by the source, chain 1 of 2): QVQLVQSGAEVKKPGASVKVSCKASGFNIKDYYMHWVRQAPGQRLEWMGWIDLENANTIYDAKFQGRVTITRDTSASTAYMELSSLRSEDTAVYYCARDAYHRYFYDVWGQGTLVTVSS
T13 sequence (VL, as listed by the source, chain 2 of 2): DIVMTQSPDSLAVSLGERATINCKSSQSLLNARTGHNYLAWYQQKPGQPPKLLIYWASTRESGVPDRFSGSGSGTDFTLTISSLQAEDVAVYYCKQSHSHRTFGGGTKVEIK
Method in brief: as §2

ADI-48576 = target: T14, ADI-48576; assay: SPR Carterra, yeast anti-ID
T14 construct: pH-dependent anti-CD3 antibody made in CHO cells
Method in brief: as §2

ADI-48650 = target: T15, ADI-48650; assay: SPR Carterra, yeast anti-ID
T15 construct: pH-dependent anti-CD3 antibody made in CHO cells
Method in brief: as §2

ADI-26915 = target: T16, ADI-26915; assay: SPR Carterra, yeast anti-ID
T16 construct: anti-CD3 antibody made in CHO cells, captured by anti-human Fc
Method in brief: as §2

ADI-26912 = target: T17, ADI-26912; assay: SPR Carterra, yeast anti-ID
T17 construct: anti-CD3 antibody made in CHO cells, captured by anti-human Fc
Method in brief: as §2

CTL-62228 = target: T18, CTL-62228; assay: SPR Carterra, yeast anti-ID
T18 construct: also called glofitamab
Method in brief: as §2

CTL-62240 = target: T19, CTL-62240; assay: SPR Carterra, yeast anti-ID
T19 construct: also called ONO-4685
T19 sequence (VH, as listed by the source, chain 1 of 2): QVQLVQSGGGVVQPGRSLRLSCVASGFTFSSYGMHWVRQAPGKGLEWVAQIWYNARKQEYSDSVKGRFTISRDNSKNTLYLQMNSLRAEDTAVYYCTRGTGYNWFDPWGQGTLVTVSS
T19 sequence (VL, as listed by the source, chain 2 of 2): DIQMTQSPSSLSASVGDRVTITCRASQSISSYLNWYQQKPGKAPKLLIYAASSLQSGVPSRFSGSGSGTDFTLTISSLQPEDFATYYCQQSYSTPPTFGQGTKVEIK
Method in brief: as §2

ADI-48592 = target: T20, ADI-48592; assay: SPR Carterra, yeast anti-ID
T20 construct: pH-dependent anti-CD3 antibody made in CHO cells
T20 sequence (VH, as listed by the source, chain 1 of 2): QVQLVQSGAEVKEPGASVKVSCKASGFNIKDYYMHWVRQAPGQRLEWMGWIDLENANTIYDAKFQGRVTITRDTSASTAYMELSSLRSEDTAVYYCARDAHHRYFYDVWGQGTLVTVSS
T20 sequence (VL, as listed by the source, chain 2 of 2): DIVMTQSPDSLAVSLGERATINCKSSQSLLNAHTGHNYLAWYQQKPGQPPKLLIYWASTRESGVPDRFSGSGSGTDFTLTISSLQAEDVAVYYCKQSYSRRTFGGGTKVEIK
Method in brief: as §2

CTL-62227 = target: T21, CTL-62227; assay: SPR Carterra, yeast anti-ID
T21 construct: also called odronextamab
T21 sequence (VH, as listed by the source, chain 1 of 2): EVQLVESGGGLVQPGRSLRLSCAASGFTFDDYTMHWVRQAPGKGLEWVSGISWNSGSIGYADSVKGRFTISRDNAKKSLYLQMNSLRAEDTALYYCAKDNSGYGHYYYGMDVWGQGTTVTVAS
T21 sequence (VL, as listed by the source, chain 2 of 2): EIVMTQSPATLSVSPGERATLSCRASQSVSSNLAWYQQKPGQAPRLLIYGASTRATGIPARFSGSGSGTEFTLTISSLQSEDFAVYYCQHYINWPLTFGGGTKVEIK
Method in brief: as §2

ADI-26919 = target: T22, ADI-26919; assay: SPR Carterra avidity, yeast anti-ID
T22 construct: anti-CD3 antibody made in CHO cells, captured by anti-human Fc
Method in brief: as §2

ADI-26916 IgG = target: T23, ADI-26916 IgG; assay: SPR Carterra avidity, yeast anti-ID
T23 construct: anti-CD3 IgG
Method in brief: as §2

CTL-62223 = target: T24, CTL-62223; assay: SPR Carterra avidity, yeast anti-ID
T24 construct: also called mosunetuzumab
Method in brief: as §2

ADI-76357 = target: T25, ADI-76357; assay: SPR Carterra avidity, yeast anti-ID
T25 construct: anti-CD3 antibody made in CHO cells, captured by anti-human Fc
Method in brief: as §2

ADI-76358 = target: T26, ADI-76358; assay: SPR Carterra avidity, yeast anti-ID
T26 construct: anti-CD3 antibody made in CHO cells, captured by anti-human Fc
Method in brief: as §2

ADI-70326 = target: T27, ADI-70326; assay: SPR Carterra avidity, yeast anti-ID
T27 construct: anti-CD3 antibody made in CHO cells, captured by anti-human Fc
T27 sequence (VH, as listed by the source limits assumed, chain 1 of 2): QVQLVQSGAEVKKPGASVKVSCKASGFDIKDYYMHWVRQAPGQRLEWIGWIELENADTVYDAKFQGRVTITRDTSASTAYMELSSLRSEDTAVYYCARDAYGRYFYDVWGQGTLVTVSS
T27 sequence (VL, as listed by the source limits assumed, chain 2 of 2): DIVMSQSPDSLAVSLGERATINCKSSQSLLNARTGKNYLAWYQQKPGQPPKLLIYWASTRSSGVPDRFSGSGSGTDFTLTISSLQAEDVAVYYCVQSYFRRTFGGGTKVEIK
Method in brief: as §2

ADI-74968 = target: T28, ADI-74968; assay: SPR Carterra avidity, yeast anti-ID
T28 construct: pH-dependent anti-CD3 antibody made in CHO cells
T28 sequence (VL, as listed by the source, chain 2 of 2): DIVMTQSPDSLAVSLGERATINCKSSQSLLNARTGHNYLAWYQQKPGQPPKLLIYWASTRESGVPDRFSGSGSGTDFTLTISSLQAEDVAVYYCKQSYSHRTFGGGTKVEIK
Method in brief: as §2

ADI-50024 = target: T29, ADI-50024; assay: SPR Carterra avidity, yeast anti-ID
T29 construct: anti-CD3 antibody made in CHO cells, captured by anti-human Fc
Method in brief: as §2

ADI-74967 = target: T30, ADI-74967; assay: SPR Carterra avidity, yeast anti-ID
T30 construct: pH-dependent anti-CD3 antibody made in CHO cells
T30 sequence (VH, as listed by the source, chain 1 of 2): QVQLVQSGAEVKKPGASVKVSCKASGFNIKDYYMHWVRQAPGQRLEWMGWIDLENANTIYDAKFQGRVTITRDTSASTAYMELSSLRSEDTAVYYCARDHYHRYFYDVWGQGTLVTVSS
T30 sequence (VL, as listed by the source, chain 2 of 2): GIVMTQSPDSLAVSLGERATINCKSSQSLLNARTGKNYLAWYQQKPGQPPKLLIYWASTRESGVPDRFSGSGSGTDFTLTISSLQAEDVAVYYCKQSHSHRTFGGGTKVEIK
Method in brief: as §2

ADI-26906 IgG = target: T31, ADI-26906 IgG; assay: SPR Carterra avidity, yeast anti-ID
T31 construct: anti-CD3 IgG
Method in brief: as §2

ADI-26913 IgG = target: T32, ADI-26913 IgG; assay: SPR Carterra avidity, yeast anti-ID
T32 construct: anti-CD3 IgG
T32 sequence (VH, as listed by the source limits assumed, chain 1 of 2): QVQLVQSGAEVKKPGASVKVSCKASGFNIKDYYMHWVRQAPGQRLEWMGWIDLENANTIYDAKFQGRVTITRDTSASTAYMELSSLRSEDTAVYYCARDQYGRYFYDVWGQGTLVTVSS
Method in brief: as §2

ADI-67450 = target: T33, ADI-67450; assay: SPR Carterra avidity, yeast anti-ID
T33 construct: anti-CD3 antibody made in CHO cells, captured by anti-human Fc
T33 sequence (VH, as listed by the source limits assumed, chain 1 of 2): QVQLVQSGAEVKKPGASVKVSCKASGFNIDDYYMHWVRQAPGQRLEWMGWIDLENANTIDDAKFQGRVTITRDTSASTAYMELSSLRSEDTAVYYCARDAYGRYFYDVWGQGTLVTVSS
Method in brief: as §2

ADI-48587 = target: T34, ADI-48587; assay: SPR Carterra avidity, yeast anti-ID
T34 construct: pH-dependent anti-CD3 antibody made in CHO cells
Method in brief: as §2

ADI-74966 = target: T35, ADI-74966; assay: SPR Carterra avidity, yeast anti-ID
T35 construct: pH-dependent anti-CD3 antibody made in CHO cells
Method in brief: as §2

ADI-70327 = target: T36, ADI-70327; assay: SPR Carterra avidity, yeast anti-ID
T36 construct: anti-CD3 antibody made in CHO cells, captured by anti-human Fc
T36 sequence (VH, as listed by the source limits assumed, chain 1 of 2): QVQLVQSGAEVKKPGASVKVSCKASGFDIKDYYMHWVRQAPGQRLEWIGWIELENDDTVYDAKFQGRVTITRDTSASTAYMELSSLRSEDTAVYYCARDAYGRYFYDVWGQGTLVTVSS
Method in brief: as §2

ADI-76360 = target: T37, ADI-76360; assay: SPR Carterra avidity, yeast anti-ID
T37 construct: anti-CD3 antibody made in CHO cells, captured by anti-human Fc
Method in brief: as §2

ADI-70330 = target: T38, ADI-70330; assay: SPR Carterra avidity, yeast anti-ID
T38 construct: anti-CD3 antibody made in CHO cells, captured by anti-human Fc
Method in brief: as §2

B1: ADI-34131 (antibody, V domains shown)
VH: QVQLVQSGAEVKKPGSSVKVSCKASGGTFSSYAISWVRQAPGQGLEWMGGIIPIFGTANYAQKFQGRVTITADESTSTAYMELSSLRSEDTAVYYCARGAPNYYGSGGYDDGWFDPWGQGTLVTVSS
VL: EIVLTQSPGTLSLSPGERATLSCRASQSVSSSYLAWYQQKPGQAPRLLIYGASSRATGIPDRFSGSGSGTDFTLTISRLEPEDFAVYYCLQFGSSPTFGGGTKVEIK
notes: anti-ID IgG
- Kd (ADI-22523 Fab): 13.5 nM
- Kd (ADI-22523 IgG): 0.73 nM
- Kd (ADI-76359): 8.7 nM
- Kd (ADI-26924): 17 nM
- Kd (ADI-26920 IgG): 11 nM
- Kd (ADI-67447): 13 nM
- Kd (ADI-76361): 19 nM
- Kd (ADI-26943): 22 nM
- Kd (ADI-26909): 13 nM
- Kd (ADI-67445): 25 nM
- Kd (ADI-26921 IgG): 18 nM
- Kd (ADI-76362): 16 nM
- binding result (ADI-74965): no binding (tested: up to 200 nM)
- binding result (ADI-48576): no binding (tested: up to 200 nM)
- binding result (ADI-48650): no binding (tested: up to 200 nM)
- binding result (ADI-26915): no binding (tested: up to 200 nM)
- binding result (ADI-26912): no binding (tested: up to 200 nM)
- binding result (CTL-62228): no binding (tested: up to 200 nM)
- binding result (CTL-62240): no binding (tested: up to 200 nM)
- binding result (ADI-48592): no binding (tested: up to 200 nM)
- binding result (CTL-62227): no binding (tested: up to 200 nM)
- Kd (ADI-26919): 25 nM
- Kd (ADI-26916 IgG): 84 nM
- Kd (CTL-62223): 54 nM
- Kd (ADI-76357): 35 nM
- Kd (ADI-76358): 91 nM
- Kd (ADI-70326): 130 nM
- binding result (ADI-74968): binds
- Kd (ADI-50024): 18 nM
- Kd (ADI-74967): 22 nM
- Kd (ADI-26906 IgG): 27 nM
- Kd (ADI-26913 IgG): 20 nM
- Kd (ADI-67450): 69 nM
- binding result (ADI-48587): binds
- Kd (ADI-74966): 31 nM
- Kd (ADI-70327): 130 nM
- Kd (ADI-76360): 43 nM
- Kd (ADI-70330): 80 nM
